Measured values reported in the supplement of paper PMC9233669.
Variants at the floor of the assay were thinned out.

Tests used:
biotinyl-Trp-oxazolone = experiment: self-aminoacylation, catalytic enhancement (BWO) (fold over background); higher = more active; k-Seq, kA / k0A0; sequences stand for … in GGGAAUGGAUCCACAUCUACGAAUUC…UUCACUGCAGACUUGACGAAGCUG
In short: (§1)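 Working in 50 μL HEPES/NaCl/KCl/MgCl2/CaCl2 buffer with 5% acetonitrile at pH 6.9–7.0, mutagenized RNA pools (0.43 μM; 21-nt variable region) were reacted with 2–1250 μM of each biotinyl-aminoacyl-oxazolone for 90 minutes at room temperature. Streptavidin capture followed, with quantification by triplicate qPCR and Illumina sequencing. Catalytic enhancement is reported as median kA over the uncatalyzed rate, the low-activity peak of a bimodal Gaussian fit to the data.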

biotinyl-Phe-oxazolone = experiment: self-aminoacylation, catalytic enhancement (BFO) (fold over background); higher = more active; k-Seq, kA / k0A0; sequences stand for … in GGGAAUGGAUCCACAUCUACGAAUUC…UUCACUGCAGACUUGACGAAGCUG
In short: as §1

biotinyl-Met-oxazolone = experiment: self-aminoacylation, catalytic enhancement (BMO) (fold over background); higher = more active; k-Seq, kA / k0A0; sequences stand for … in GGGAAUGGAUCCACAUCUACGAAUUC…UUCACUGCAGACUUGACGAAGCUG
In short: as §1

biotinyl-Leu-oxazolone = experiment: self-aminoacylation, catalytic enhancement (BLO) (fold over background); higher = more active; k-Seq, kA / k0A0; sequences stand for … in GGGAAUGGAUCCACAUCUACGAAUUC…UUCACUGCAGACUUGACGAAGCUG
In short: as §1

biotinyl-Ile-oxazolone = experiment: self-aminoacylation, catalytic enhancement (BIO) (fold over background); higher = more active; k-Seq, kA / k0A0; sequences stand for … in GGGAAUGGAUCCACAUCUACGAAUUC…UUCACUGCAGACUUGACGAAGCUG
In short: as §1

biotinyl-Val-oxazolone = experiment: self-aminoacylation, catalytic enhancement (BVO) (fold over background); higher = more active; k-Seq, kA / k0A0; sequences stand for … in GGGAAUGGAUCCACAUCUACGAAUUC…UUCACUGCAGACUUGACGAAGCUG
In short: as §1

Sequence | self-aminoacylation (biotinyl-Trp-oxazolone) | self-aminoacylation (biotinyl-Phe-oxazolone) | self-aminoacylation (biotinyl-Met-oxazolone) | self-aminoacylation (biotinyl-Leu-oxazolone) | self-aminoacylation (biotinyl-Ile-oxazolone) | self-aminoacylation (biotinyl-Val-oxazolone)
CGACACUUCAAGCAAUCGCUC [Fam1B.1 aminoacylation ribozyme variant] | 2.2 | 2.06 | 1.64 | 2.26 | 2.1 | 1.96
AUUAUCAUGGUCAUCGAGUGA [Fam2.1 aminoacylation ribozyme variant] | 8.2 | 10.8 | 6.24 | 6.75 | 3.56 | 3.44
AUUAUCCAGGUCAUCGAGUGA [Fam2.1 aminoacylation ribozyme variant] | 7.93 | 30.3 | 6.52 | 6.32 | 3.13 | 3.41
AUUCACAUAGGUCAUCCGGUG [Fam2.2 aminoacylation ribozyme variant] | 7.74 | 55.9 | 7.79 | 9.85 | 5.32 | 5.53
AUUACCCUCGUCAUAGAGUGA [Fam2.1 aminoacylation ribozyme variant] | 4.65 | 11.5 | 4.53 | 4.19 | 2.43 | 2.72
CCACACUUCAACUAAUCGGUC [Fam1B.1 aminoacylation ribozyme variant] | 11.6 | 22.8 | 0.753 | 1.04 | 0.859 | 0.925
CAACACUUCAAACAAUCGGUC [Fam1B.1 aminoacylation ribozyme variant] | 38.2 | 78.2 | 1.84 | 2.11 | 1.36 | 1.38
CCACACUUCACGCAAUCGGGC [Fam1B.1 aminoacylation ribozyme variant] | 2.1 | 20 | 2.18 | 2.39 | 2.42 | 3.33
AUUCACCUAGGGCUUCGGGUG [Fam2.2 aminoacylation ribozyme variant] | 3.63 | 15.1 | 3.39 | 2.82 | 2.69 | 2.92
AUUCCCCUAGCUCAUCGGGUG [Fam2.2 aminoacylation ribozyme variant] | 5.96 | 35.1 | 5.75 | 6.66 | 6.15 | 6.05
CCACACUUCAAGCAAUCUGGC [Fam1B.1 aminoacylation ribozyme variant] | 0.834 | 0.94 | 0.71 | 0.804 | 0.851 | 0.861
AUCAACCUAGGUCAUCGGGUG [Fam2.2 aminoacylation ribozyme variant] | 7.85 | 36.3 | 7.11 | 10.2 | 4.88 | 5.02
AAGCUUGCUCAUAGUCGCAAG [Fam3.1 aminoacylation ribozyme variant] | 1.59 | 2.34 | 2.05 | 1.52 | 1.99 | 1.99
ACGUUUGCUAAUAGACGCAAG [Fam3.1 aminoacylation ribozyme variant] | 1.11 | 0.853 | 0.935 | 0.849 | 1.3 | 1.12
AAUUUUGCCAAUAGUCGCAAG [Fam3.1 aminoacylation ribozyme variant] | 1.8 | 2.34 | 2.31 | 1.8 | 1.78 | 1.69
AUUCACCUUGGUCAUCGGGCG [Fam2.2 aminoacylation ribozyme variant] | 2.93 | 3.77 | 2.81 | 3.24 | 2.74 | 2.77
CCACACUUCAAGCAGUCAGUC [Fam1B.1 aminoacylation ribozyme variant] | 0.54 | 0.947 | 0.562 | 0.717 | 0.788 | 0.91
GCACGCUUCAAGCAAUCGGUC [Fam1B.1 aminoacylation ribozyme variant] | 60.1 | 120 | 2.62 | 3.62 | 2.55 | 2.74
AGUCACCGAGGUCAUCGGGUG [Fam2.2 aminoacylation ribozyme variant] | 5.81 | 32.8 | 5.09 | 4.81 | 4.06 | 4.46
CUACUUCCAACAAUCGGUAUG [Fam1A.1 aminoacylation ribozyme variant] | 0.533 | 0.634 | 0.611 | 0.663 | 0.654 | 0.782
AUCACCCUGGUAAUCGAGUGA [Fam2.1 aminoacylation ribozyme variant] | 13.6 | 95.4 | 11.2 | 11.3 | 4.92 | 4.82
AUUCACCUAGAUUAUCGGGUG [Fam2.2 aminoacylation ribozyme variant] | 6.65 | 53.7 | 7.21 | 9 | 4.48 | 4.18
AAGUUUCCUAAUAGUGGCAAG [Fam3.1 aminoacylation ribozyme variant] | 0.634 | 0.605 | 0.752 | 0.642 | 0.838 | 0.902
